From patent publication US20230407373A1 (priority 2020, published 2023)
Where two headings read alike, the source gives them in different places.

Tests used:
SARS-CoV-2 gRNA = assay type: binding; conditions: for target (unweighted spectral count of the protein in the RNP capture): LC-MS/MS, Probe I sample (first 199 lines of Table 2)
HCoV-OC43 gRNA and sgRNA = assay type: binding; conditions: for target (unweighted spectral count, OC43 Probe II capture) / target (unweighted spectral count): tested against no-probe control; for target (unweighted spectral count, OC43 Probe II capture): FDR<10%; for target (unweighted spectral count): OC43 Probe II, 24 hpi (type n_24_v), infected cells

B1: MARS2 (protein, UniProt Q96GW9 30-593, looked up)
Methionine--tRNA ligase, …: SSGSLSAGDDACDVRAYFTTPIFYVNAAPHIGHLYSALLADALCRHRRLRGPSTAATRFSTGTDEHGLKIQQAAATAGLAPTELCDRVSEQFQQLFQEAGISCTDFIRTTEARHRVAVQHFWGVLKSRGLLYKGVYEGWYCASDECFLPEAKVTQQPGPSGDSFPVSLESGHPVSWTKEENYIFRLSQFRKPLQRWLRGNPQAITPEPFHHVVLQWLDEELPDLSVSRRSSHLHWGIPVPGDDSQTIYVWLDALVNYLTVIGYPNAEFKSWWPATSHIIGKDILKFHAIYWPAFLLGAGMSPPQRICVHSHWTVCGQKMSKSLGNVVDPRTCLNRYTVDGFRYFLLRQGVPNWDCDYYDEKVVKLLNSELADALGGLLNRCTAKRINPSETYPAFCTTCFPSEPGLVGPSVRAQAEDYALVSAVATLPKQVADHYDNFRIYKALEAVSSCVRQTNGFVQRHAPWKLNWESPVDAPWLGTVLHVALECLRVFGTLLQPVTPSLADKLLSRLGVSASERSLGELYFLPRFYGHPCPFEGRRLGPETGLLFPRLDQSRTWLVKAHRT
target (unweighted spectral count of the protein in the RNP capture) (SARS-CoV-2 gRNA; […]): 6

B2: CKAP4: host protein, UniProt Q07065 (protein, UniProt Q07065 1-602, looked up)
Cytoskeleton-associated …: MPSAKQRGSKGGHGAASPSEKGAHPSGGADDVAKKPPPAPQQPPPPPAPHPQQHPQQHPQNQAHGKGGHRGGGGGGGKSSSSSSASAAAAAAAASSSASCSRRLGRALNFLFYLALVAAAAFSGWCVHHVLEEVQQVRRSHQDFSRQREELGQGLQGVEQKVQSLQATFGTFESILRSSQHKQDLTEKAVKQGESEVSRISEVLQKLQNEILKDLSDGIHVVKDARERDFTSLENTVEERLTELTKSINDNIAIFTEVQKRSQKEINDMKAKVASLEESEGNKQDLKALKEAVKEIQTSAKSREWDMEALRSTLQTMESDIYTEVRELVSLKQEQQAFKEAADTERLALQALTEKLLRSEESVSRLPEEIRRLEEELRQLKSDSHGPKEDGGFRHSEAFEALQQKSQGLDSRLQHVEDGVLSMQVASARQTESLESLLSKSQEHEQRLAALQGRLEGLGSSEADQDGLASTVRSLGETQLVLYGDVEELKRSVGELPSTVESLQKVQEQVHTLLSQDQAQAARLPPQDFLDRLSSLDNLKASVSQVEADLKMLRTAVDSLVAYSVKIETNENNLESAKGLLDDLRNDLDRLFVKVEKIHEKV
target (unweighted spectral count, OC43 Probe II capture) (HCoV-OC43 gRNA and sgRNA; 36 hpi, type n_36_v): 12 | target (unweighted spectral count) (HCoV-OC43 gRNA and sgRNA): 8 | target (spectral count) (HCoV-OC43 gRNA and sgRNA; type s_36_m, HCoV-OC43-infected HCT-8 cells, 36 hpi, Probe II): 12 | background (spectral count) (HCoV-OC43 gRNA and sgRNA; type s_36_m, uninfected-probe control, 36 hpi, Probe II): 1 | target (unweighted spectral count in RNP capture) (SARS-CoV-2 gRNA; Probe I capture, […], LC-MS/MS LFQ): 5 | background (unweighted spectral count in control) (SARS-CoV-2 gRNA; no-probe control pull-down, used as background for Probe I): 1

B3: CON_P35908 (protein, UniProt P35908 1-639, looked up)
Keratin, type II cytoskeletal …: MSCQISCKSRGRGGGGGGFRGFSSGSAVVSGGSRRSTSSFSCLSRHGGGGGGFGGGGFGSRSLVGLGGTKSISISVAGGGGGFGAAGGFGGRGGGFGGGSSFGGGSGFSGGGFGGGGFGGGRFGGFGGPGGVGGLGGPGGFGPGGYPGGIHEVSVNQSLLQPLNVKVDPEIQNVKAQEREQIKTLNNKFASFIDKVRFLEQQNQVLQTKWELLQQMNVGTRPINLEPIFQGYIDSLKRYLDGLTAERTSQNSELNNMQDLVEDYKKKYEDEINKRTAAENDFVTLKKDVDNAYMIKVELQSKVDLLNQEIEFLKVLYDAEISQIHQSVTDTNVILSMDNSRNLDLDSIIAEVKAQYEEIAQRSKEEAEALYHSKYEELQVTVGRHGDSLKEIKIEISELNRVIQRLQGEIAHVKKQCKNVQDAIADAEQRGEHALKDARNKLNDLEEALQQAKEDLARLLRDYQELMNVKLALDVEIATYRKLLEGEECRMSGDLSSNVTVSVTSSTISSNVASKAAFGGSGGRGSSSGGGYSSGSSSYGSGGRQSGSRGGSGGGGSISGGGYGSGGGSGGRYGSGGGSKGGSISGGGYGSGGGKHSSGGGSRGGSSSGGGYGSGGGGSSSVKGSSGEAFGSSVTFSFR
target (unweighted spectral count, OC43 Probe II capture) (HCoV-OC43 gRNA and sgRNA; 24 hpi, type n_24_v): 4 | target (unweighted spectral count of the protein in the RNP capture) (SARS-CoV-2 gRNA; […]): 6

B4: RPUSD3 (protein, UniProt Q6P087 26-351, looked up)
Mitochondrial mRNA …: LGVRPVPEDAGFGTEARHQRQPRGSCQRSGPLGDQPFAGLLPKNLSREELVDALRAAVVDRKGPLVTLNKPQGLPVTGKPGELTLFSVLPELSQSLGLREQELQVVRASGKESSGLVLLSSCPQTASRLQKYFTHARRAQRPTATYCAVTDGIPAASEGKIQAALKLEHIDGVNLTVPVKAPSRKDILEGVKKTLSHFRVVATGSGCALVQLQPLTVFSSQLQVHMVLQLCPVLGDHMYSARVGTVLGQRFLLPAENNKPQRQVLDEALLRRLHLTPSQAAQLPLHLHLHRLLLPGTRARDTPVELLAPLPPYFSRTLQCLGLRLQ
target (unweighted spectral count of the protein in the RNP capture) (SARS-CoV-2 gRNA; […]): 7

B5: DHX30 (protein, UniProt Q7L2E3 1-1194, looked up)
ATP-dependent RNA helicase …: MFSLDSFRKDRAQHRQRQCKLPPPRLPPMCVNPTPGGTISRASRDLLKEFPQPKNLLNSVIGRALGISHAKDKLVYVHTNGPKKKKVTLHIKWPKSVEVEGYGSKKIDAERQAAAAACQLFKGWGLLGPRNELFDAAKYRVLADRFGSPADSWWRPEPTMPPTSWRQLNPESIRPGGPGGLSRSLGREEEEDEEEELEEGTIDVTDFLSMTQQDSHAPLRDSRGSSFEMTDDDSAIRALTQFPLPKNLLAKVIQIATSSSTAKNLMQFHTVGTKTKLSTLTLLWPCPMTFVAKGRRKAEAENKAAALACKKLKSLGLVDRNNEPLTHAMYNLASLRELGETQRRPCTIQVPEPILRKIETFLNHYPVESSWIAPELRLQSDDILPLGKDSGPLSDPITGKPYVPLLEAEEVRLSQSLLELWRRRGPVWQEAPQLPVDPHRDTILNAIEQHPVVVISGDTGCGKTTRIPQLLLERYVTEGRGARCNVIITQPRRISAVSVAQRVSHELGPSLRRNVGFQVRLESKPPSRGGALLFCTVGILLRKLQSNPSLEGVSHVIVDEVHERDVNTDFLLILLKGLQRLNPALRLVLMSATGDNERFSRYFGGCPVIKVPGFMYPVKEHYLEDILAKLGKHQYLHRHRHHESEDECALDLDLVTDLVLHIDARGEPGGILCFLPGWQEIKGVQQRLQEALGMHESKYLILPVHSNIPMMDQKAIFQQPPVGVRKIVLATNIAETSITINDIVHVVDSGLHKEERYDLKTKVSCLETVWVSRANVIQRRGRAGRCQSGFAYHLFPRSRLEKMVPFQVPEILRTPLENLVLQAKIHMPEKTAVEFLSKAVDSPNIKAVDEAVILLQEIGVLDQREYLTTLGQRLAHISTDPRLAKAIVLAAIFRCLHPLLVVVSCLTRDPFSSSLQNRAEVDKVKALLSHDSGSDHLAFVRAVAGWEEVLRWQDRSSRENYLEENLLYAPSLRFIHGLIKQFSENIYEAFLVGKPSDCTLASAQCNEYSEEEELVKGVLMAGLYPNLIQVRQGKVTRQGKFKPNSVTYRTKSGNILLHKSTINREATRLRSRWLTYFMAVKSNGSVFVRDSSQVHPLAVLLLTDGDVHIRDDGRRATISLSDSDLLRLEGDSRTVRLLKELRRALGRMVERSLRSELAALPPSVQEEHGQLLALLAELLRGPCGSFDVRKTADD
target (unweighted spectral count of the protein in the RNP capture) (SARS-CoV-2 gRNA; […]): 13

B6: DDX3X (protein, UniProt O00571 2-662, looked up)
ATP-dependent RNA helicase …: SHVAVENALGLDQQFAGLDLNSSDNQSGGSTASKGRYIPPHLRNREATKGFYDKDSSGWSSSKDKDAYSSFGSRSDSRGKSSFFSDRGSGSRGRFDDRGRSDYDGIGSRGDRSGFGKFERGGNSRWCDKSDEDDWSKPLPPSERLEQELFSGGNTGINFEKYDDIPVEATGNNCPPHIESFSDVEMGEIIMGNIELTRYTRPTPVQKHAIPIIKEKRDLMACAQTGSGKTAAFLLPILSQIYSDGPGEALRAMKENGRYGRRKQYPISLVLAPTRELAVQIYEEARKFSYRSRVRPCVVYGGADIGQQIRDLERGCHLLVATPGRLVDMMERGKIGLDFCKYLVLDEADRMLDMGFEPQIRRIVEQDTMPPKGVRHTMMFSATFPKEIQMLARDFLDEYIFLAVGRVGSTSENITQKVVWVEESDKRSFLLDLLNATGKDSLTLVFVETKKGADSLEDFLYHEGYACTSIHGDRSQRDREEALHQFRSGKSPILVATAVAARGLDISNVKHVINFDLPSDIEEYVHRIGRTGRVGNLGLATSFFNERNINITKDLLDLLVEAKQEVPSWLENMAYEHHYKGSSRGRSKSSRFSGGFGARDYRQSSGASSSSFSSSRASSSRSGGGGHGSSRGFGGGGYGGFYNSDGYGGNYNSQGVDWWGN
target (unweighted spectral count, OC43 Probe II capture) (HCoV-OC43 gRNA and sgRNA; 36 hpi, type n_36_v): 7 | target (unweighted spectral count) (HCoV-OC43 gRNA and sgRNA): 7 | target (unweighted spectral count, OC43 Probe II) (HCoV-OC43 gRNA and sgRNA; type n_48_v, 48 hpi, OC43 Probe II capture on infected cells): 11 | background (unweighted spectral count, no-probe control) (HCoV-OC43 gRNA and sgRNA; type n_48_v, 48 hpi, no-probe control on infected cells): 2 | target (unweighted spectral count of the protein in the RNP capture) (SARS-CoV-2 gRNA; […]): 17

B7: SRSF9 (protein, UniProt Q13242 1-221, looked up)
Serine/arginine-rich splicing …: MSGWADERGGEGDGRIYVGNLPTDVREKDLEDLFYKYGRIREIELKNRHGLVPFAFVRFEDPRDAEDAIYGRNGYDYGQCRLRVEFPRTYGGRGGWPRGGRNGPPTRRSDFRVLVSGLPPSGSWQDLKDHMREAGDVCYADVQKDGVGMVEYLRKEDMEYALRKLDDTKFRSHEGETSYIRVYPERSTSYGYSRSRSGSRGRDSPYQSRGSPHYFSPFRPY
target (unweighted spectral count of the protein in the RNP capture) (SARS-CoV-2 gRNA; […]): 6

B8: FAM1204 (protein, UniProt Q9NZB2 1-1118, looked up)
Constitutive coactivator of …: MGVQGFQDYIEKHCPSAVVPVELQKLARGSLVGGGRQRPPQTPLRLLVDADNCLHRLYGGFYTDWVSGGQWNHMLGYLAALAKACFGGNIELFVFFNGALEKARLHEWVKRQGNERQTAQQIVSHVQNKGTPPPKVWFLPPVCMAHCIRLALIRFHVKVAQSIEDHHQEVIGFCRENGFHGLVAYDSDYALCNIPYYFSAHALKLSRNGKSLTTSQYLMHEVAKQLDLNPNRFPIFAALLGNHILPDEDLASFHWSLLGPEHPLASLKVRAHQLVLPPCDVVIKAVADYVRNIQDTSDLDAIAKDVFQHSQSRTDDKVIRFKRAIGYYSATSKPMSFHPPHYLAARPGPFGMPGMVPPHVPPQMLNIPQTSLQAKPVAPQVPSPGGAPGQGPYPYSLSEPAPLTLDTSGKNLTEQNSYSNIPHEGKHTPLYERSSPINPAQSGSPNHVDSAYFPGSSTSSSSDNDEGSGGATNHISGNKIGWEKTGSHSEPQARGDPGDQTKAEGSSTASSGSQLAEGKGSQMGTVQPIPCLLSMPTRNHMDITTPPLPPVAPEVLRVAEHRHKKGLMYPYIFHVLTKGEIKIAVSIEDEANKDLPPAALLYRPVRQYVYGVLFSLAESRKKTERLAFRKNRLPPEFSPVIIKEWAAYKGKSPQTPELVEALAFREWTCPNLKRLWLGKAVEDKNRRMRAFLACMRSDTPAMLNPANVPTHLMVLCCVLRYMVQWPGARILRRQELDAFLAQALSPKLYEPDQLQELKIENLDPRGIQLSALFMSGVDMALFANDACGQPIPWEHCCPWMYFDGKLFQSKLLKASREKTPLIDLCDGQADQAAKVEKMRQSVLEGLSFSRQSHTLPFPPPPALPFYPASAYPRHFGPVPPSQGRGRGFAGVCGFGGPYGETVATGPYRAFRVAAASGHCGAFSGSDSSRTSKSQGGVQPIPSQGGKLEIAGTVVGHWAGSRRGRGGRGPFPLQVVSVGGPARGRPRGVISTPVIRTFGRGGRYYGRGYKNQAAIQGRPPYAASAEEVAKELKSKSGESKSSAMSSDGSLAENGVMAEEKPAPQMNGSTGDARAPSHSESALNNDSKTCNTNPHLNALSTDSACRREAALEAAVLNKEE
target (unweighted spectral count of the protein in the RNP capture) (SARS-CoV-2 gRNA; […]): 37
